Results from US7381537B2, “Use of inhibitors of glutaminyl cyclases for treatment and prevention of disease” (Probiodrug AG, priority 2003, dated 2008).

Key:
Assay in all cases: purified protein, by the assay type;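 also: initial rates read in microplates at 30 °C, with enzyme activity quantified against an ammonia calibration curve recorded under the same assay conditions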
[1] = substrate: CC(C)C[C@H](NC(=O)[C@H](CCCCN)NC(=O)[C@H](CCC(N)=O)NC(=O)[C@H](Cc1c[nH]cn1)NC(=O)[C@H](Cc1c[nH]cn1)NC(=O)[C@@H](NC(=O)[C@H](CCC(=O)O)NC(=O)[C@H](Cc1ccc(O)cc1)NC(=O)CNC(=O)[C@H](CO)NC(=O)[C@H](CC(=O)O)NC(=O)[C@H](Cc1c[nH]cn1)NC(=O)[C@H](CCCNC(=N)N)NC(=O)[C@H](Cc1ccccc1)NC(=O)[C@@H](N)CCC(N)=O)C(C)C)C(=O)N[C@H](C(=O)N[C@@H](Cc1ccccc1)C(=O)N[C@@H](Cc1ccccc1)C(=O)N[C@@H](C)C(N)=O)C(C)C; details: other: recombinant human QC, buffer solution containing 1% DMSO; pH 8.8
Method: (§1) The initial velocities were evaluated and the enzymatic activity was determined from a standard curve of ammonia under assay conditions. All samples were measured at 30° C., using either the [sequence]luor Plus or the Sunrise (both from TECAN) reader for microplates. Kinetic data was evaluated using GraFit software.

[2] = substrate: CC(C)C[C@H](NC(=O)[C@H](CCCNC(=N)N)NC(=O)[C@H](CCCCN)NC(=O)[C@H](Cc1ccccc1)NC(=O)C[C@@H](N)CCC(N)=O)C(=O)N[C@@H](C)C(N)=O; details: other: text b245; pH 8.8
Method: as §1

[3] = substrate: N=C(N)NCCC[C@H](NC(=O)[C@H](Cc1ccccc1)NC(=O)[C@@H](N)CCC(N)=O)C(=O)N[C@@H](Cc1c[nH]cn1)C(=O)N[C@@H](CC(=O)O)C(=O)N[C@@H](CO)C(=O)NCC(=O)N[C@@H](Cc1ccc(O)cc1)C(=O)N[C@@H](CCC(=O)O)C(N)=O; details: other: recombinant human QC, buffer solution containing 1% DMSO; pH 8.8
Method: as §1

[4] = substrate: C[C@H](NC(=O)[C@H](C)NC(=O)[C@H](CO)NC(=O)[C@H](C)NC(=O)[C@H](C)NC(=O)[C@@H](N)CCC(N)=O)C(N)=O; details: other: Table 6, influence of substrate length; pH 8.8
Method: as §1

[5] = substrate: C[C@H](NC(=O)[C@H](C)NC(=O)[C@H](C)NC(=O)[C@H](C)NC(=O)[C@@H](N)CCC(N)=O)C(N)=O; details: other: Table 6, influence of substrate length; pH 8.8
Method: as §1

B1: human QC (Homo sapiens) (protein)
chain: VSPSASAWPEEKNYHQPAILNSSALRQIAEGTSISEMWQNDLQPLLIERYPGSPGSYAARQHIMQRIQRLQADWVLEIDTFLSQTPYGYRSFSNIISTLNPTAKRHLVLACHYDSKYFSHWNNRVFVGATDSAVPCAMMLELARALDKKLLSLKTVSDSKPDLSLQLIFFDGEEAFLHWSPQDSLYGSRHLAAKMASTPHPPGARGTSQLHGMDLLVLLDLIGAPNPTFPNFFPNSARWFERLQAIEHELHELGLLKDHSLEGRYFQNYSYGGVIQDDHIPFLRRGVPVLHLIPSPFPEVWHTMDDNEENLDESTIDNLNKILQVFVLEYLHL
B1 gave a Km [1] of 162 ± 12 µM, a kcat [1] of 62 ± 3 s⁻¹ and a kcat/Km [1] of 383000 ± 10000 M⁻¹ s⁻¹. It also gave a Km [2] of 2500 ± 200 µM, a kcat [2] of 3.5 ± 0.1 s⁻¹ and a kcat/Km [2] of 1300 ± 100 M⁻¹ s⁻¹. It also gave a Km [3] of 155 ± 4 µM, a kcat [3] of 41.4 ± 0.4 s⁻¹ and a kcat/Km [3] of 267000 ± 4000 M⁻¹ s⁻¹. For the same protein, the Km [4] was 79 ± 6 µM, the kcat [4] was 55.3 ± 1.6 s⁻¹ and the kcat/Km [4] was 700000 ± 33000 M⁻¹ s⁻¹. It also gave a Km [5] of 65 ± 3 µM, a kcat [5] of 60.5 ± 0.7 s⁻¹ and a kcat/Km [5] of 1.174e+06 ± 43000 M⁻¹ s⁻¹.
